A word on the Ki: it is the dissociation constant of the complex between target and ligand, obtained from inhibition or displacement. Low readings indicate higher affinity, high ones lower affinity. As usually defined, the Km is the substrate concentration at which the rate is half of its maximum. What is called Vmax is the rate approached at saturating substrate. One may read the kcat as the maximal rate divided by the concentration of active sites.

The source of these data is article PMC8949286, “A New Strategy for As(V) Biosensing Based on the Inhibition of the Phosphatase Activity of the Arsenate Reductase from Thermus thermophilus” (International Journal of Molecular Sciences, 2022).

One data set concerns the target T1, TtArsC (Thermus thermophilus, UniProt Q72HI5).
T1 construct: gene TT_C1502; recombinant, pET30/TtarsC in E. coli BL21-CodonPlus(DE3)-RIL; thermo-precipitation, anion exchange (Resource Q), gel filtration (Superdex S75); no tag mentioned
T1 sequence (Q72HI5 1-150): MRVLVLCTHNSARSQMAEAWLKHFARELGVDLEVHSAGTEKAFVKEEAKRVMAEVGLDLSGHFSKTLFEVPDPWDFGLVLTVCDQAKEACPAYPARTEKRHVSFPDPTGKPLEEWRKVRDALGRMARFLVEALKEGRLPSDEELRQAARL
Kind of data set: biochemical.

Substrate in the data set “purified protein”: O=[N+]([O-])c1ccc(OP(=O)(O)O)cc1
In words: purified protein. The data set is classed as biochemical, Thermus thermophilus. Conditions: no inhibitor, 4 µM enzyme, 20 mM Tris-HCl pH 7, 60 °C.

At TtArsC, `O=[As]O` [As(III)] displayed a Ki of 394 ± 40.3 µM.

B1: TtArsC (Thermus thermophilus HB27) (protein)
chain: MRVLVLCTHNSARSQMAEAWLKHFARELGVDLEVHSAGTEKAFVKEEAKRVMAEVGLDLSGHFSKTLFEVPDPWDFGLVLTVCDQAKEACPAYPARTEKRHVSFPDPTGKPLEEWRKVRDALGRMARFLVEALKEGRLPSDEELRQAARL
notes: recombinant, pET30/TtarsC in E. coli BL21-CodonPlus(DE3)-RIL; thermo-precipitation, anion exchange (Resource Q), gel filtration (Superdex S75); no tag mentioned
Consider B1, for which, in “purified protein”, the Km is on record as 9.57 ± 1.95 mM, the Vmax came to 0.0193 µmol/min/mg and the kcat came to 0.005 s⁻¹.
